Reference: publication PMC5372681, “Study of Different Variants of Mo Enzyme crARC and the Interaction with Its Partners crCytb5-R and crCytb5-1” (International Journal of Molecular Sciences, 2017)
One block for each substance: values may come before it.

Columns and labels:
[1] = molecular target: crCytb5-1, Chlamydomonas reinhardtii cytochrome b5-1 (Chlamydomonas reinhardtii)
[2] = molecular target: crCytb5-R, Chlamydomonas reinhardtii NADH cytochrome b5 reductase (Chlamydomonas reinhardtii)
[3] = molecular target: crARC variant F210A (Chlamydomonas reinhardtii); test: SEC; each protein loaded alone; Superdex 200 10/300 GL, 50 mM phosphate buffer pH 7.2, 0.15 M NaCl, 0.75 mL/min; Mw from a calibration curve of marker proteins
[4] = molecular target: crARC variant R276A (Chlamydomonas reinhardtii); test: as above
[5] = molecular target: crCytb5-1, Chlamydomonas reinhardtii cytochrome b5-1 (Chlamydomonas reinhardtii); test: as above
[6] = molecular target: crCytb5-R, Chlamydomonas reinhardtii NADH cytochrome b5 reductase (Chlamydomonas reinhardtii); test: SEC; two proteins incubated together for 10 min, then loaded; 15 pmol of each; Superdex 200 10/300 GL, 50 mM phosphate buffer pH 7.2, 0.15 M NaCl, 0.75 mL/min; peak fractions checked by SDS-PAGE
[7] = molecular target: crARC, Chlamydomonas reinhardtii mARC (mitochondrial Amidoxime Reducing Component), wild type (Chlamydomonas reinhardtii); test: as above

- NADH-dependent HAP reduction activity of the crARC variant with crCytb5-1 and crCytb5-R (% of the wild type activity) [1]: 25
Substance: crARC variant E267A (enzyme)

- NADH-dependent HAP reduction activity of the crARC variant with crCytb5-1 and crCytb5-R [2]: 25%
Substance: crARC variant E267A (enzyme; the values are: NADH-dependent HAP reduction activity (% of wild type))

- times more oligomeric forms than the wild type [3]: 10 times
Substance: crARC variant F210A (enzyme)

- stoichiometry N [4]: 30 crARC units
Substance: crARC variant R276A (enzyme)

- stoichiometry N [5]: 2
- stoichiometry N (crCytb5-1 per crCytb5-R) [6]: 4
- stoichiometry N (crCytb5-1 per crARC) [7]: 2
Substance: crCytb5-1, Chlamydomonas reinhardtii cytochrome b5-1 (natural protein)
